Holding throughout (experiment): EMSA
Holding throughout (conditions): 10 mM Tris-HCl pH 7.4, 50 mM KCl, 1 mM DTT, 100 mg/mL BSA (so in the source), 5 ng/mL poly[dI-dC], 200 uM c-di-GMP, 30 C 20 min; 5% native PAGE with 50 uM c-di-GMP …
For orientation: Mobility shift assays separate free from complexed probe on a gel.

In series [1] the target is T1, MrkH 15AS16-8xHis internal_change (Klebsiella pneumoniae AJ218) (UniProt G3FT00).
T1 sequence: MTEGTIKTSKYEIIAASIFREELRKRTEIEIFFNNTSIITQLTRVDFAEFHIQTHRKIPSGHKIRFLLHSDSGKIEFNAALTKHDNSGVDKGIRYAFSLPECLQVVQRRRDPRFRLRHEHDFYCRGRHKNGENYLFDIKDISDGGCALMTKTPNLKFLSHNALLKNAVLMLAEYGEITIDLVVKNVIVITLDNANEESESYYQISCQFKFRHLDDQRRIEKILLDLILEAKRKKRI

Series [2] concerns the target T2, MrkH-8xHis (Klebsiella pneumoniae AJ218) (UniProt G3FT00).
T2 sequence: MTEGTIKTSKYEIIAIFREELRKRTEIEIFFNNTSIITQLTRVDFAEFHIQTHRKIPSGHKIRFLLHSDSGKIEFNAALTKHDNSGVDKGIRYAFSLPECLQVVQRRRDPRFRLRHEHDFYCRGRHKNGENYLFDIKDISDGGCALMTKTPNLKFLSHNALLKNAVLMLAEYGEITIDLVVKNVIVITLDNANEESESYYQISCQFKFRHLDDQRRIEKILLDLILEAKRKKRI

Series [3] has as its target T3, MrkH 217AS218-8xHis internal_change (Klebsiella pneumoniae AJ218) (UniProt G3FT00).
T3 sequence: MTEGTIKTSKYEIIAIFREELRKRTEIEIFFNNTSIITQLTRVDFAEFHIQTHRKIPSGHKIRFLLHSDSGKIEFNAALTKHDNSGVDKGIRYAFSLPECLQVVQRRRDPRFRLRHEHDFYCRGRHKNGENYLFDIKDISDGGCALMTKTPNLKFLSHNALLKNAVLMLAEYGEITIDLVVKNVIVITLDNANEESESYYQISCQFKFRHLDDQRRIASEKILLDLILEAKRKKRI

In series [4] the target is T4, MrkH 39AS40-8xHis internal_change (Klebsiella pneumoniae AJ218) (UniProt G3FT00).
T4 sequence: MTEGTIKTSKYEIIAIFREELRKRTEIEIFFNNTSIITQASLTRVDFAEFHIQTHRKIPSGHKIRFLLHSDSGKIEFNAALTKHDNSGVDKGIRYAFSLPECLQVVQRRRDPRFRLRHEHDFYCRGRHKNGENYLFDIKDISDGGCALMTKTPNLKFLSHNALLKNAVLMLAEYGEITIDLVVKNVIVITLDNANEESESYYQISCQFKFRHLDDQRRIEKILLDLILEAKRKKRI

Series [5] deals with T5, MrkH 202AS203-8xHis internal_change (Klebsiella pneumoniae AJ218) (UniProt G3FT00).
T5 sequence: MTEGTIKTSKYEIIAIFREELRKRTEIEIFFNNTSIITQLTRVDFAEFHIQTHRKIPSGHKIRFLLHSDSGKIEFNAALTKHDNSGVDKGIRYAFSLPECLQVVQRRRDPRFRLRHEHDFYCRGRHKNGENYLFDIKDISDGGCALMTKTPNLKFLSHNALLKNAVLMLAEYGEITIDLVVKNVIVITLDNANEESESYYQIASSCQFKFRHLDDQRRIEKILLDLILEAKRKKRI

Take “GCTGTTGCGGTCACTTTCTCTCGCTCTGGCGTTAGGCTTGCTGCGCTGTAAACAACCACCCTCGCGTTTTCATCTATCAATGACTGTTTATTAATAGTCGATGGTTATCTGTTATATAACTTAATGAAACGTGAACAAATGTATATTTGTCGGCGAATAAATAGCATTCTTTGACGCCGATAGCACCAGCGAACTTATATTTTTAGGTTCGTTACCTGACGCCTTAAATATTGCGGCTCCCGGTCAGTCGAAGATTCTATTAGCAGTGGC (double strand) [mrkA promoter fragment, wild type]”: the binding result in series [1] was “binds”; in series [2], “binds”; in series [3], “no binding”; in series [4] it was “binds”; in series [5], “no binding”.
As for “GCTGTTGCGGTCACTTTCTCTCGCTCTGGCGTTAGGCTTGCTGCGCTGTAAACAACCACCCTCGCGTTTTCATCTATCAATGACTGTTGCAGCATAGTCGATGGTTATCTGTTATATAACTTAATGAAACGTGAACAAATGTATATTTGTCGGCGAATAAATAGCATTCTTTGACGCCGATAGCACCAGCGAACTTATATTTTTAGGTTCGTTACCTGACGCCTTAAATATTGCGGCTCCCGGTCAGTCGAAGATTCTATTAGCAGTGGC (double strand) [mrkA fragment, UP mutation]”, the binding result in series [2] is “binds”.
The same measure, in the same setting: as for “GCTGTTGCGGTCACTTTCTCTCGCTCTGGCGTTAGGCTTGCTGCGCTGTAAACAACCACCCTCGCGTTTTCATCTAAGAATGACTGTTTATTAATAGTCGATGGTTATCTGTTATATAACTTAATGAAACGTGAACAAATGTATATTTGTCGGCGAATAAATAGCATTCTTTGACGCCGATAGCACCAGCGAACTTATATTTTTAGGTTCGTTACCTGACGCCTTAAATATTGCGGCTCCCGGTCAGTCGAAGATTCTATTAGCAGTGGC (double strand) [mrkA fragment, MrkH box mut-6]”, the entry is “binds more weakly”; as for “GCTGTTGCGGTCACTTTCTCTCGCTCTGGCGTTAGGCTTGCTGCGCTGTAAACAACCACCCTCGCGTTTTCATCTCCCAATGACTGTTTATTAATAGTCGATGGTTATCTGTTATATAACTTAATGAAACGTGAACAAATGTATATTTGTCGGCGAATAAATAGCATTCTTTGACGCCGATAGCACCAGCGAACTTATATTTTTAGGTTCGTTACCTGACGCCTTAAATATTGCGGCTCCCGGTCAGTCGAAGATTCTATTAGCAGTGGC (double strand) [mrkA fragment, MrkH box mut-5]”, “binds more weakly”.

These data come from article PMC3828302.
